# Source: paper PMC4452151 (Cancer Science, 2015)
# What was measured:
# CD3 on T cells = CD3 on T cells (Homo sapiens (endogenous, Jurkat cells …, UniProt P07766)); test: flow cytometry on cells
# [1] = molecular target: recombinant human CD138 protein (Homo sapiens (Human)., UniProt P18827, biotin (in the bio-layer interferometry experiment only)); test: BLI
# Sequence of recombinant human CD138 protein (P18827 23-254): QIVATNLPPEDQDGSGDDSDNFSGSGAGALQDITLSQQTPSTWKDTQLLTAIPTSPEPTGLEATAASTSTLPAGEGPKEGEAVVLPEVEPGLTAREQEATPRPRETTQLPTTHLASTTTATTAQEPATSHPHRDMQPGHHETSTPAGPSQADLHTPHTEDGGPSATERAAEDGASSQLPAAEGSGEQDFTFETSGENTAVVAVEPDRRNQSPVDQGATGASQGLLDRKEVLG
# Sequence of CD3 on T cells (Homo sapiens (P07766 23-207): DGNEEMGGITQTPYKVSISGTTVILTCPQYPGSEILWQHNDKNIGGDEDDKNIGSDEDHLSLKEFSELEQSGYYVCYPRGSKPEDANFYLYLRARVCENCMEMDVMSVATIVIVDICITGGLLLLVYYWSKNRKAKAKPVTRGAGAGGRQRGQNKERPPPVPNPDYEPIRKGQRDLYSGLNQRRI
binder,measurement,setting,value
"aCD138-ScFv-hIgFc (scFv, V domains shown) VH: QVQLQQSGSELMMPGASVKISCKATGYTFSNYWIEWVKQRPGHGLEWIGEILPGTGRTIYNEKFKGKATFTADISSNTVQMQLSSLTSEDSAVYYCARRDYYGNFYYAMDYWGQGTSVTVSS VL: DIQMTQSTSSLSASLGDRVTISCSASQGINNYLNWYQQKPDGTVELLIYYTSTLQSGVPSRFSGSGSGTDYSLTISNLEPEDIGTYYCQQYSKLPRTFGGGTKLEIK",binding result,CD3 on T cells,no binding (tested: 10 μg/mL)
same,Kd,[1],13.5 nM
